# In IntAct's records for PubMed 11163211:
# B1: G2/mitotic-specific cyclin cig2 (Schizosaccharomyces pombe (strain ATCC 38366 / 972)), P36630 (parent)
# chain: MALYSISKPVGSKINKHSYQDENTLVGKQALSKGTEKTKLSTNFEINLPRRTVLSDVSNVGKNNADEKDTKKAKRSFDESNLSTNEEADKPVESKFVKKLKVYSKNADPSVETLQKDRVSNVDDHLSSNPLMAEEYAPEIFEYIRKLDLKCLPNPKYMDQQKELTWKMREILNEWLVEIHSNFCLMPETLYLAVNIIDRFLSRRSCSLSKFQLTGITALLIASKYEEVMCPSIQNFVYMTDGAFTVEDVCVAERYMLNVLNFDLSYPSPLNFLRKISQAEGYDAQTRTLGKYLTEIYLFDHDLLRYPMSKIAAAAMYLSRRLLRRGPWTPKLVESSGGYEEHELKEIAYIMLHYHNKPLEHKAFFQKYSSKRFLKASIFVHQLVRQRYSVNRTDDDDLQSEPSSSLTNDGH
# Variants of: B1
# Details: with cdk1_schpo cdc2, P04551
# Sequence of cdk1_schpo cdc2, P04551 (P04551 whole entry): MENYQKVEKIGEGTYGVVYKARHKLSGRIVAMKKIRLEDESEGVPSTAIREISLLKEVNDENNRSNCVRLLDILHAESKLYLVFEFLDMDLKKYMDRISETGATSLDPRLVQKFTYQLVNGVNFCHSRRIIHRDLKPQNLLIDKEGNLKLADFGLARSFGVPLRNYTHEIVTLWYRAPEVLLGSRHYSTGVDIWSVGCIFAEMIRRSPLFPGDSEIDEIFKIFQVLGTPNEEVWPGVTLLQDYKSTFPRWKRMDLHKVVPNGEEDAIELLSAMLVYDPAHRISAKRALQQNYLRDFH
row,effect of a mutation on the interaction,Variant
1,disrupting interaction,R169A;E170A;I171A
